# Data as given in patent US11021532 (CENTIVAX, dated 2021).
# Tests used:
# [1] = target: SARS CoV-2 spike protein on pseudovirus (SARS-CoV-2, UniProt P0DTC2 14-1273); assay: cell-based or functional assay
# [2] = target: T1, SARS-CoV-2 Receptor Binding Domain (RBD) protein (SARS-CoV-2); assay: SPR (Carterra LSA), scFv captured via anti-V5, RBD as analyte, 1:1 fit
# [3] = target: T1, SARS-CoV-2 Receptor Binding Domain …; assay: SPR (Carterra LSA), scFv captured via anti-V5, RBD as analyte
Binder,IC50 [µg/mL] pseudotyped lenti neut [1],Kd [2],Kd [3]
"COVID19_P24_G06 (scFv, V domains shown) VH: QVQLVQSGAEVKKPGASVKVSCKASGYTFTNYGISWVRQAPGQGLEWMGWISARNGNTNYAQKFQGRVTMTRDTSTSTVYMELSSLRSEDTAVYYCTTDPVLEWFGYSIWGQGTMVTVSS VL: not shown",0.16 µg/mL,,
"COVID19_P24_D08 (scFv, V domains shown) VH: QVQLVQSGAEVKKPGASVKVSCKASGYTFTSYDINWVRQAPGQGLEWMGIIDPSGGSTSYAQKFQGRVTMTRDTSTSTVYMELSSLRSEDTAVYYCATVTPGYGMDVWGQGTTVTVSS VL: DIQMTQSPSSLSASVGDRVTITCRASQTIYSYLNWYQQKPGKAPKLLIYDASNLETGVPSRFSGSGSGTDFTLTISSLQPEDFATYYCQQAISFPLTFGGGTKLEIKR",17 µg/mL,,
"COVID19_P24_C01 (scFv, V domains shown) VH: QVQLVQSGAEVKKPGASVKVSCKASGYTFTRYYIHWVRQAPGQGLEWMGIINPSGGSTTYAQKFQGRVTMTRDTSTSTVYMELSSLRSEDTAVYYCAKGAPHDYIWGSYRPDAFDIWGQGTMVTVSS VL: DIQMTQSPSSLSASVGDRVTITCRASENIDSWLAWYQQKPGKAPKLLIYEASTLESGVPSRFSGSGSGTDFTLTISSLQPEDFATYYCHQYLSSPETFGQGTKVEIKR",0.92 µg/mL,,
"COVID19_P23_G11 (scFv, V domains shown) VH: QVQLVQSGAEVKKPGASVKVSCKASGGTFRSTAISWVRQAPGQGLEWMGWMNPNSGNTGYAQKFQGRVTMTRDTSTSTVYMELSSLRSEDTAVYYCARAGYSSSSGYYYYGMDVWGKGTTVTVSS VL: DIQMTQSPSSLSASVGDRVTITCRASQGISNNLNWYQQKPGKAPKLLIYAASSLQSGVPSRFSGSGSGTDFTLTISSLQPEDFATYYCQQYDTFPLTFGQGTKVEIKR",0.26 µg/mL,,
"COVID19_P23_G12 (scFv, V domains shown) VH: QVQLVQSGAEVKKPGASVKVSCKASGYIFTSYPIHWVRQAPGQGLEWMGWMNPNSGNTGYAQKFQGRVTMTRDTSTSTVYMELSSLRSEDTAVYYCARDRGSYDTDAFDIWGQGTMVTVSS VL: DIQMTQSPSSLSASVGDRVTITCRASQDISNYLNWYQQKPGKAPKLLIYAASNLQSGVPSRFSGSGSGTDFTLTISSLQPEDFATYYCQQANSFPSTFGQGTKLEIKR",15.9 µg/mL,370 pM,< 50000 pM
